The text below walks through data of patent US20200340042, “IN VITRO SELECTION FOR NUCLEIC ACID […]” (McMaster University, published 2020).

The target in data set [1] is T1, glutamate dehydrogenase (rGDH, recombinant) (Clostridium difficile, UniProt P27346 SEQ:1-421).
T1 sequence: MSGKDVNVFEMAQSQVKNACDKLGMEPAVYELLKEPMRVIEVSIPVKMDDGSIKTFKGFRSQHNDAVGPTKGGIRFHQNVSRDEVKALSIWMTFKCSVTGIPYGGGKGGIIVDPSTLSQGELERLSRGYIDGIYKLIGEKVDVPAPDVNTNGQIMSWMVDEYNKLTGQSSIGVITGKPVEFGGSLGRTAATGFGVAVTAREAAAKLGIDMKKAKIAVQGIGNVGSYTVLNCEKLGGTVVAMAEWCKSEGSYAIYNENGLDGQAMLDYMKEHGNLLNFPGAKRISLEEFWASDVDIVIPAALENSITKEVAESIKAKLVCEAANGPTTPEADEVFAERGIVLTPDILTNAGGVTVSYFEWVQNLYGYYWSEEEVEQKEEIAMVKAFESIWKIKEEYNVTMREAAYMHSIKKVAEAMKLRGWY
Briefly: pulldown; no affinity to rGDH. To be noted: tags: His-tag; expressed in E. coli; Pro-Lab Diagnostics; chain copies: 6; label: 32P. As for the experimental part: (§1) The pull-down assays were conducted in a total volume of 300 μL of 1× binding buffer containing 50 μL of bead-bound rGDH (final concentration ˜50 nM) and 100 μL of 100 nM captamer candidates for 30 min with gentle rotation. In parallel, negative controls consisting of the captamers incubated with uncoated beads were included. Following three washing steps, proteins and bound aptamers were eluted with 30 μL of elution buffer (20 mM Tris-HCl, 500 mM imidazole, pH 7.5) by shaking at 90° C. for 10 min. The resultant mixtures were then analyzed by 10% dPAGE, and quantified by Image Quant software. […] Pull-down assays were conducted in a total volume of 300 μL of 1× binding buffer containing 10 μL of bead-bound rGDH (final concentration ˜9.2 nM) and 100 μL of aptamers with serial dilutions for 30 min with gentle rotation. Following washing steps, the bound DNA was then analyzed by 10% dPAGE. The apparent dissociation constants (Kd) of each aptamer candidate were obtained by fitting the fractional bound DNA to the total aptamer concentration using a one-site binding model.
However, Capt-4 was a new sequence that was not observed in the previous selection. […] In this assay, each captamer candidate was incubated with bare NiMBs or rGDH-coated NiMBs, followed by elution of the bound captamer and radioactivity analysis by dPAGE (FIG. 2a).

In data set [2] the target is T1, glutamate dehydrogenase (rGDH, …). Briefly: pulldown; […]; 50 mM HEPES, 150 mM NaCl, 10 mM MgCl2, 5 mM KCl, 0.02% Tween-20, pH 7.2, 25 C. To be noted: tags: His-tag; expressed in E. coli; Pro-Lab Diagnostics; chain copies: 6; label: 32P.
For data set [3] the target is unchanged. Briefly: pulldown. As to conditions: tags: His-tag; expressed in E. coli; Pro-Lab Diagnostics; chain copies: 6; label: 32P; linear. On the procedure:
as §1, with “100 μL of 1× binding buffer containing 100 nM γ-[³²P]-labeled captamer candidates was first denatured at 90° C. for 10 min, followed by incubation at RT for 20 min. The pull-down” for “The pull-down”, “10% dPAGE. […]” for “10% dPAGE. The apparent dissociation constants (Kd) of each aptamer candidate were obtained by fitting the fractional bound DNA to the total aptamer concentration using a one-site binding model.”
The inventors measured the dissociation constant (Kd) for Capt-2 and Capt-4 using the same pull-down assay, along with their linear counterparts, Lapt-2 and Lapt-4 (FIG. 2b). […]

For data set [4] the target is unchanged. As to the kind of experiment: pulldown; competes with Anti-G1T1, same epitope. To be noted: tags: His-tag; expressed in E. coli; Pro-Lab Diagnostics; chain copies: 6; label: 32P; linear.
Data set [5] addresses T2, glutamate dehydrogenase (nGDH, native) (Clostridium difficile, UniProt P27346 SEQ:1-421).
T2 sequence: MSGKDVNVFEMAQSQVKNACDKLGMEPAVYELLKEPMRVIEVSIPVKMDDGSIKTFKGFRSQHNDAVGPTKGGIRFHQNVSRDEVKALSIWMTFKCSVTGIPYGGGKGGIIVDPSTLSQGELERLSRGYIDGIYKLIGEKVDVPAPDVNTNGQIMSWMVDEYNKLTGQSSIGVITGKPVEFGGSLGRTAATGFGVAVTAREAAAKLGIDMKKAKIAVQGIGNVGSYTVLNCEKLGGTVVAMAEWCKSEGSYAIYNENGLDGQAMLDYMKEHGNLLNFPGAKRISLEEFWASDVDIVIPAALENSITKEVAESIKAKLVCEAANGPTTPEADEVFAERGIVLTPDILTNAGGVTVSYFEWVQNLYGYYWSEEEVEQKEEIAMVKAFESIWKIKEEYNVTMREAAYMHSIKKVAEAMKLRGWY
Briefly: FP filter; paper filter binding; binding buffer with 10 mM MgCl2, 1% BSA. To be noted: tags: Pro-Lab Diagnostics; chain copies: 6 stated; label: 32P.

Data set [6] has as its target T1, glutamate dehydrogenase (rGDH, …). As to the kind of experiment: pulldown; 10 mM MgCl2, 150 mM NaCl, pH 7.2, 25 C; epitope distinct from aptamer 2. As to conditions: tags: His-tag; expressed in E. coli; Pro-Lab Diagnostics; chain copies: 6; label: 32P. As for the experimental part:
as §1, with “Following” for “The pull-down assays were conducted in a total volume of 300 μL of 1× binding buffer containing 50 μL of bead-bound rGDH (final concentration ˜50 nM) and 100 μL of 100 nM captamer candidates for 30 min with gentle rotation. In parallel, negative controls consisting of the captamers incubated with uncoated beads were included. Following”
(§2) The inventors measured the dissociation constant (Kd) for Capt-2 and Capt-4 using the same pull-down assay, along with their linear counterparts, Lapt-2 and Lapt-4 (FIG. 2b). […] The structural prediction with the m-fold program (http: //unafold.rna.albany.edu/?q=mfold) also provides a good rationale for the functionality of aptamer 2 in both circular and linear configurations, as the random-sequence nucleotides are predicted to form the same structural elements in both forms (FIG. 9). […]

Data set [7] concerns the target toxin A (TcdA) (Clostridium difficile, UniProt P16154 SEQ:1-2710).
The target of data set [8] is toxin B (TcdB) (Clostridium difficile, UniProt P18177 SEQ:2-2366).
toxin B (TcdB), sequence (P18177 2-2366): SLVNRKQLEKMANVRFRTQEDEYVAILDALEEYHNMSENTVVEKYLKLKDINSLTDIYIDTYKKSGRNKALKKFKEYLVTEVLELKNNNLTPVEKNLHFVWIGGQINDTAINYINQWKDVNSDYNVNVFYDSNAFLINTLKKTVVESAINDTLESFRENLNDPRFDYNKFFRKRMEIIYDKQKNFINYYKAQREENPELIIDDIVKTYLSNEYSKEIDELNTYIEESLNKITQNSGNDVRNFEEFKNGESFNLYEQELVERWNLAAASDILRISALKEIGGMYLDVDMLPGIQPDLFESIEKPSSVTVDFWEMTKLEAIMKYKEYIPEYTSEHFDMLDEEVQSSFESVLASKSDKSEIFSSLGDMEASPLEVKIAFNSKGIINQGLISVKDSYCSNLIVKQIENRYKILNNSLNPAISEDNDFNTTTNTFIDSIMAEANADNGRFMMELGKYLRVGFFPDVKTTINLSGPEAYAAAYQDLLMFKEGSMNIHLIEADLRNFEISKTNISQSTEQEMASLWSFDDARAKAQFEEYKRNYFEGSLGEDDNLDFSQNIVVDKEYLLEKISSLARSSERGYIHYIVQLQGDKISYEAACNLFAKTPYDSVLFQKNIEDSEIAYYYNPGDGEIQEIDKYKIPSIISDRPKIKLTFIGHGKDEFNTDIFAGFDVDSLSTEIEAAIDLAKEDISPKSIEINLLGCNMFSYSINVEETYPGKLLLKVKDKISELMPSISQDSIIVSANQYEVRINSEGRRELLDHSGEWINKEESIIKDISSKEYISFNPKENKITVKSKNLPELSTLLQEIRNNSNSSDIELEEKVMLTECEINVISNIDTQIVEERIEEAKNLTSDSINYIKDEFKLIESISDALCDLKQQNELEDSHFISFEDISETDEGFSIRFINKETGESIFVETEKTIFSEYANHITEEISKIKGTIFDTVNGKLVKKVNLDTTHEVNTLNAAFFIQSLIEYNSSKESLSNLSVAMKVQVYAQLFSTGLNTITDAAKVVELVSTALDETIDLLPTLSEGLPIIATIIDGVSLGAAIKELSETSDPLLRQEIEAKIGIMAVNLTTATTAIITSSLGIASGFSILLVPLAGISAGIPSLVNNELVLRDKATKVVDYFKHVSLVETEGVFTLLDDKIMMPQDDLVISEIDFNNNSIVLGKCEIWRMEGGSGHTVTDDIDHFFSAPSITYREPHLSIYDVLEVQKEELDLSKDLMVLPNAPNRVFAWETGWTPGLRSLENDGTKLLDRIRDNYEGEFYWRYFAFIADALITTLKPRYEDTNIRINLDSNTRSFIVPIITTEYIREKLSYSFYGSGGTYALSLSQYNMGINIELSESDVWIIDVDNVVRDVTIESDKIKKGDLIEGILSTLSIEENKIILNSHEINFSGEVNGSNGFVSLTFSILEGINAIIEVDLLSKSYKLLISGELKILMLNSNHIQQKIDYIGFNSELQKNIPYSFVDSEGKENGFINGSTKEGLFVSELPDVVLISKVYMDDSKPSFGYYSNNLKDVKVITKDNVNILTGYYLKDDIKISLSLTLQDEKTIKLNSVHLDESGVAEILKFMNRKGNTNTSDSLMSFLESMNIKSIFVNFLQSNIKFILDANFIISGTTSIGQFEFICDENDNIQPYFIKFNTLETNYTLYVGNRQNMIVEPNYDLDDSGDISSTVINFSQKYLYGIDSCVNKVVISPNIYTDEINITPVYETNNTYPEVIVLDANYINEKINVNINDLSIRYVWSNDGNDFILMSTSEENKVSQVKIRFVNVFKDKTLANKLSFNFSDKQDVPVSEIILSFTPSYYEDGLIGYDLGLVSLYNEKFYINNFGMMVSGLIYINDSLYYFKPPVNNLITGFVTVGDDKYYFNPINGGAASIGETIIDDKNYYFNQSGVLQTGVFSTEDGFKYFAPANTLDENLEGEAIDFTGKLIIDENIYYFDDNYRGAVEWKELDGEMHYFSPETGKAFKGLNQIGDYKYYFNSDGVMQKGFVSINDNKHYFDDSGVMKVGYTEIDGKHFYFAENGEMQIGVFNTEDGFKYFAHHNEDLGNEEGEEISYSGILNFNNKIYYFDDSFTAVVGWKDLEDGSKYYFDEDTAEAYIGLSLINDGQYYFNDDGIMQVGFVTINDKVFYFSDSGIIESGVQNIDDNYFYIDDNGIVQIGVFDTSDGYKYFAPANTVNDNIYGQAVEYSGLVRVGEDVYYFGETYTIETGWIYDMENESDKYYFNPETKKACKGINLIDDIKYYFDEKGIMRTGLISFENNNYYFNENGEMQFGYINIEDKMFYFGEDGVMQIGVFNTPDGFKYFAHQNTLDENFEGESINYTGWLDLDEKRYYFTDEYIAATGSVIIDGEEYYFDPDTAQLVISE
In data set [9] the target is bovine serum albumin (BSA) (UniProt P02769 P02769:25-607).
Data set [10] addresses T1, glutamate dehydrogenase (rGDH, …). As to the kind of experiment: pulldown; 10 mM MgCl2, pH 7.2, 25 C; no detectable binding in dot blot (p157). As to conditions: tags: His-tag; expressed in E. coli; Pro-Lab Diagnostics; chain copies: 6; label: 32P; linear. On the procedure: as §1, with “Following” for “The pull-down assays were conducted in a total volume of 300 μL of 1× binding buffer containing 50 μL of bead-bound rGDH (final concentration ˜50 nM) and 100 μL of 100 nM captamer candidates for 30 min with gentle rotation. In parallel, negative controls consisting of the captamers incubated with uncoated beads were included. Following”
as §2

For data set [11] the target is unchanged. Briefly: pulldown; competes with Anti-G1, Anti-G3, Anti-G7. As to conditions: tags: His-tag; expressed in E. coli; Pro-Lab Diagnostics; chain copies: 6; label: 32P; linear.

toxin A (TcdA), sequence (P16154 whole entry): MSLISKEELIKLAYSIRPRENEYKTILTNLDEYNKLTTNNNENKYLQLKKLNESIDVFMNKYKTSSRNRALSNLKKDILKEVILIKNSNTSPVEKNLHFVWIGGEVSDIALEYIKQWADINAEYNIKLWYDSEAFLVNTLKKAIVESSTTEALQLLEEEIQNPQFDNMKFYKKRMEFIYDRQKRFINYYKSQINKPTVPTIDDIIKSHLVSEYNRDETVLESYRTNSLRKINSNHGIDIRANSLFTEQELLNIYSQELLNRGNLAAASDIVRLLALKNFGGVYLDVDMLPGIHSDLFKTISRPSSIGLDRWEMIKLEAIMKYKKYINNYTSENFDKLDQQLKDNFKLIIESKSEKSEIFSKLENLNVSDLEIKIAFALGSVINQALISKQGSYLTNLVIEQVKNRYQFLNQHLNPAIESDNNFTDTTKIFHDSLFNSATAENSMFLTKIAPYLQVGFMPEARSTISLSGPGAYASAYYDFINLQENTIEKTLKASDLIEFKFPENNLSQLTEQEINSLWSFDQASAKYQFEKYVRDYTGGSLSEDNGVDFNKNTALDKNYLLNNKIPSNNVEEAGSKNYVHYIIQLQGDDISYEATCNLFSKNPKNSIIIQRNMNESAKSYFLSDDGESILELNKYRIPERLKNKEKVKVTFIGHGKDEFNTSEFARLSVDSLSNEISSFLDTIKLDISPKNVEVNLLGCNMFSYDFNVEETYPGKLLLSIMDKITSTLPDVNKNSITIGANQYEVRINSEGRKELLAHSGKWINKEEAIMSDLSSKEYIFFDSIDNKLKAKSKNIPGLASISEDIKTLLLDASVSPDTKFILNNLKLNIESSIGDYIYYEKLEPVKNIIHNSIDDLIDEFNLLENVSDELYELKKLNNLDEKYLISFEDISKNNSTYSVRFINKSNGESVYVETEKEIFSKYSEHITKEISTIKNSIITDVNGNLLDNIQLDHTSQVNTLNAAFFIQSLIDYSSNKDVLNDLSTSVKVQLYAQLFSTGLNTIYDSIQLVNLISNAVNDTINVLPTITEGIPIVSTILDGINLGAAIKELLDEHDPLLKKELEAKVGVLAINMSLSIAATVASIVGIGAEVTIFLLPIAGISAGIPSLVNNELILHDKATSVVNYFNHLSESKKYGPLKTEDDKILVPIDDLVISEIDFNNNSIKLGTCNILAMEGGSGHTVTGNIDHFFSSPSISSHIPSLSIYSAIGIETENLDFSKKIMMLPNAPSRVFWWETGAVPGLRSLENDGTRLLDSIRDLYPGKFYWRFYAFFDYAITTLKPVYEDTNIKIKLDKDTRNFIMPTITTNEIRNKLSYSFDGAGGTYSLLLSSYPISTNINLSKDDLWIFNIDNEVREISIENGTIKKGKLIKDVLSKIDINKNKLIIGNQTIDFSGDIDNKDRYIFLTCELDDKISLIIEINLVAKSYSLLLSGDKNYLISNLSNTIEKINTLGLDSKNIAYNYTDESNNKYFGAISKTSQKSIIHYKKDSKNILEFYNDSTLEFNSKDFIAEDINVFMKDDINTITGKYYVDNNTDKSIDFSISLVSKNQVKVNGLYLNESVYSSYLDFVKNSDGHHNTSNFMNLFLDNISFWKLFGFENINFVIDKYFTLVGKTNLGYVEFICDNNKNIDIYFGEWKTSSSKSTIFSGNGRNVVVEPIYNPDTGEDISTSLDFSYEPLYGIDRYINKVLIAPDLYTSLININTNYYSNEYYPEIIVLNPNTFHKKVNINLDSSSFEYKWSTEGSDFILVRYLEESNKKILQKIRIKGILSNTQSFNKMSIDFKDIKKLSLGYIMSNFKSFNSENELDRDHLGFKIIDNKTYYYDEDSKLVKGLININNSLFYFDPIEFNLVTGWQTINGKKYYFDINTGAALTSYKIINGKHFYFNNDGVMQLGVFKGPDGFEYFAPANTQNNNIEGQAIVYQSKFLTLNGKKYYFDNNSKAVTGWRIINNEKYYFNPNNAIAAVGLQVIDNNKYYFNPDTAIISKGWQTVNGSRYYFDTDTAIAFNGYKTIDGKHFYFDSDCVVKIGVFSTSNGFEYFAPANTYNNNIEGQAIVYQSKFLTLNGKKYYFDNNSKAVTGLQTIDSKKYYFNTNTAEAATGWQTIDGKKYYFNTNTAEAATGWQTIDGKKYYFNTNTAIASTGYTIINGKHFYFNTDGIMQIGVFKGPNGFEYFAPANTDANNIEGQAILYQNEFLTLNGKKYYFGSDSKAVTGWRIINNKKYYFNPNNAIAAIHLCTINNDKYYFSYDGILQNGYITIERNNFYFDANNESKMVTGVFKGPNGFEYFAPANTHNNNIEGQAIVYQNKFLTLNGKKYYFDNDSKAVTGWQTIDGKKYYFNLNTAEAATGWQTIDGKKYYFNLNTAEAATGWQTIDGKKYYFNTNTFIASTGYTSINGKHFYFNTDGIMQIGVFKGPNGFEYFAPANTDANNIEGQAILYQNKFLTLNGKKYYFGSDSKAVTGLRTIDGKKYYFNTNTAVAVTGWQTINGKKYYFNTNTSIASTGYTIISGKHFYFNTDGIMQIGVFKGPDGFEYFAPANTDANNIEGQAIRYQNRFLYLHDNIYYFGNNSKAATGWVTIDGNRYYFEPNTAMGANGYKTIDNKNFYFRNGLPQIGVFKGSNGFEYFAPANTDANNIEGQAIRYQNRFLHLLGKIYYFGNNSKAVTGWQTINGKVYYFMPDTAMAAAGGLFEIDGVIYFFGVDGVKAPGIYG

B1: Scrambled Capt-4 (ssDNA)
DNA: GAAGGATTCGGACTAGGATCCGGTCCAACTACCGGTGCCCTAATGGCATCAAAACTGCGTACCGAGCGTGTTTATCTTTCTG
In the case of B1, in data set [1], the binding result is on record as “no binding”.

B2: Capt-2 (ssDNA)
DNA: CAGGTCCATCGAGTGGTAGGAGGAGGTATTTAGTGCCAAGCCATCTCAAACGACGTCTGAGTCGCACTGCTCCTGAACGTAC
In general, Kd refers to the constant that tells how readily two partners part at equilibrium. For the molecule B2, in [2], the Kd amounted to 4.4 nM.

B3: Lapt-2 (Anti-G1) (ssDNA)
DNA: CAGGTCCATCGAGTGGTAGGAGGAGGTATTTAGTGCCAAGCCATCTCAAACGACGTCTGAGTCGCACTGCTCCTGAACGTAC
As to B3, in [3], the Kd was found to be 5.6 nM.

B4: Anti-G3 (ssDNA)
DNA: CAGGTCCATCGAGTGGTAGGATGCAGCGGACAGTGTGGGACCATCGCTGCGGATGTATGAATCGCACTGCTCCTGAACGTAC
Turning to B4, in data set [4], the binding result is listed as “binds”.

B5: Capt-4 (ssDNA)
DNA: CAGGTCCATCGAGTGGTAGGACGACCCGAATAGTGGCATATCAATGAGTGCTTGTCATCTTTCGCACTGCTCCTGAACGTAC
In the case of B5, the equilibrium dissociation constant (Kd) was found to be 2.8 nM in data set [5] and 12.3 nM in [6]. In addition, the binding result in [7], in data set [8] and in data set [9] was “no binding” throughout.

B6: Lapt-4 (ssDNA)
DNA: CAGGTCCATCGAGTGGTAGGACGACCCGAATAGTGGCATATCAATGAGTGCTTGTCATCTTTCGCACTGCTCCTGAACGTAC
B6: the Kd in data set [10] worked out at 293 nM.

B7: Anti-G1T1 (ssDNA)
DNA: TAGGAGGAGGTATTTAGTGCCAAGCCATCTCAAACGACGTCTGAGTCGCACTGCTCCTG
On to B7, for which, in data set [11], the binding result is “binds”.

B8: Scrambled Capt-2 (ssDNA)
DNA: CGGGAGTACGCATGTATGAGACACCCACGCTATGTCCCTACTATGAGGTGGAGACTTGCTACGTGCATCGCAGATCGGTCAA
With B8, the binding result in data set [1] is listed as “no binding”.

B9: Anti-G7 (ssDNA)
DNA: CAGGTCCATCGAGTGGTAGGACCCAACCCACGATGCGCAAGAGGAATGCAGCCTACCAGCATCGCACTGCTCCTGAACGTAC
For the molecule B9, the binding result in data set [4] is “binds”.
